Experimental data from the supplement of paper PMC6757056.
± gives the standard deviation of the averaged measurements.

B1: library; a variant is named by its letters at N, in order (parent)
chain: GCUGUCACCGGUGUAUUACCCUAGUGGUCGACCGGUCUGAUGAGUCUNNNNNNAGACGAAACAGC

Columns and labels:
[1] = variants of: B1; assay: FACS-Seq fitted mean relative fluorescence mCherry/BFP without ligand (log10 relative fluorescence); ligand: hypoxanthine (xanthine aptamer); higher = higher reporter protein expression; details: HEK293T, ligand present: no
Summary of the method: (§1)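 With or without ligand for 48 h, enriched HEK293T libraries carrying a lentiviral ribozyme-switch mCherry reporter and EF1α-BFP were sorted into 6 mCherry/BFP bins. Bin genomic DNA was amplified by PCR, barcoded and sequenced on MiSeq. Fluorescence was taken from normal fits to the resulting bin counts. Each fitted mean of log10(mCherry/BFP) was scaled to five spiked-in control ribozymes.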

[2] = variants of: B1; assay: normalized RNA/DNA level with ligand (relative to sTRSVctl = 100) (log10 (% of sTRSVctl)); ligand: hypoxanthine (xanthine aptamer); higher = less ribozyme self-cleavage, higher mRNA level; details: ligand concentration (+) RNA-Seq: 5 mM, HEK293T, reporter: mCherry (pCS4076), ligand present: yes
Summary of the method: (§2)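 Library plasmids carrying ribozyme switches linked to mCherry, or to eGFP in some ligand experiments, were transfected into HEK293T at 4 µg per 6-well well, with any ligand added 1 h earlier. Seventy-two hours on, total RNA was extracted with EDTA and reverse-transcribed, amplified, barcoded and sequenced. RNA level was RNA over DNA reads normalized to a spiked-in non-cleaving sequence or to the top sequences, then scaled and log-transformed. The top set was 25 sequences, the transform was ×100 and log10, and sequences needed ≥100 DNA reads.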

[3] = variants of: B1; assay: normalized RNA/DNA level without ligand (relative to sTRSVctl = 100) (log10 (% of sTRSVctl)); ligand: hypoxanthine (xanthine aptamer); higher = less ribozyme self-cleavage, higher mRNA level; details: HEK293T, reporter: mCherry (pCS4076), ligand present: no
Summary of the method: as §2

[4] = variants of: B1; assay: FACS-Seq fitted mean relative fluorescence mCherry/BFP with ligand (log10 relative fluorescence); ligand: hypoxanthine (xanthine aptamer); ligand concentration (+) FACS-Seq: 5 mM; higher = higher reporter protein expression; details: HEK293T, ligand present: yes
Summary of the method: as §1

Variant	FACS-Seq fitted mean (log10) [1]	normalized RNA/DNA level with ligand (log10) [2]	normalized RNA/DNA level without ligand (log10) [3]	FACS-Seq fitted mean (log10) [4]
GCUGUCACCGGUGUAUUACCCUAGUGGUCGACCGGUCUGAUGAGUCUGCAGUGAGACGAAACAGC [GCAGUG]	0.155 ± 0.01	1.87 ± 0.075	1.4 ± 0.064	0.533 ± 0.039
GCUGUCACCGGUGUAUUACCCUAGUGGUCGACCGGUCUGAUGAGUCUGCAGUCAGACGAAACAGC [GCAGUC]	0.791 ± 0.051	1.94 ± 0.047	1.71 ± 0.047	0.764 ± 0.064
GCUGUCACCGGUGUAUUACCCUAGUGGUCGACCGGUCUGAUGAGUCUUCAUACAGACGAAACAGC [UCAUAC]	0.306 ± 0.022	1.98 ± 0.041	1.89 ± 0.056	0.474 ± 0.0069
GCUGUCACCGGUGUAUUACCCUAGUGGUCGACCGGUCUGAUGAGUCUUCAUAAAGACGAAACAGC [UCAUAA]	0.7537 ± 0.0032	1.93 ± 0.029	1.75 ± 0.025	0.622 ± 0.0065
GCUGUCACCGGUGUAUUACCCUAGUGGUCGACCGGUCUGAUGAGUCUUCAGUUAGACGAAACAGC [UCAGUU]	-0.0872 ± 0.018	1.96 ± 0.046	1.87 ± 0.04	0.0688 ± 0.016
GCUGUCACCGGUGUAUUACCCUAGUGGUCGACCGGUCUGAUGAGUCUUCAGUAAGACGAAACAGC [UCAGUA]	0.09 ± 0.0096	1.92 ± 0.069	1.797 ± 0.013	0.386 ± 0.036
GCUGUCACCGGUGUAUUACCCUAGUGGUCGACCGGUCUGAUGAGUCUGCAUAAAGACGAAACAGC [GCAUAA]	0.705 ± 0.011	1.92 ± 0.03	1.801 ± 0.015	0.6261 ± 0.0017
GCUGUCACCGGUGUAUUACCCUAGUGGUCGACCGGUCUGAUGAGUCUCCAUACAGACGAAACAGC [CCAUAC]	0.1516 ± 0.0013	1.9 ± 0.031	1.836 ± 0.011	0.283 ± 0.013
GCUGUCACCGGUGUAUUACCCUAGUGGUCGACCGGUCUGAUGAGUCUACAGUUAGACGAAACAGC [ACAGUU]	-0.0389 ± 0.048	1.914 ± 0.0073	1.73 ± 0.021	0.0577 ± 0.038
GCUGUCACCGGUGUAUUACCCUAGUGGUCGACCGGUCUGAUGAGUCUACAGUCAGACGAAACAGC [ACAGUC]	0.656 ± 0.012	1.924 ± 0.0022	1.951 ± 0.0032	0.657 ± 0.04
GCUGUCACCGGUGUAUUACCCUAGUGGUCGACCGGUCUGAUGAGUCUACAUAAAGACGAAACAGC [ACAUAA]	0.531 ± 0.011	1.899 ± 0.0086	1.79 ± 0.021	0.532 ± 0.029
